From patent US20170204182A1 (published 2017)
Where a chain is given by its changes, count along the chain named.

Columns and labels:
[1] = target: T1, CD81 (UniProt P60033 1-236, limits assumed); assay: cell ELISA
T1 construct: whole, on cells; also called CD81 receptor
T1 sequence (looked up): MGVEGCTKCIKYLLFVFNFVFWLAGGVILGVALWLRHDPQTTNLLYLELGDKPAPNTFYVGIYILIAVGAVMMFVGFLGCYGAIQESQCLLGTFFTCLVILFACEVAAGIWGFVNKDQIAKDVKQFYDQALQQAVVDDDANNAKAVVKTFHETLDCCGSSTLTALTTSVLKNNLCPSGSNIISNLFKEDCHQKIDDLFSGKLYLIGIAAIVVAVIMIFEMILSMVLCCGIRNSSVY
Method: For the binding cell ELISA assay, HuH7-Rluc-H3 (positive cell line expressing CD81) and HuH7-Rluc-L1 (negative control cell line) were propagated in F-12 DMEM medium with 10% FCS at 37° C. and 5% CO₂. On day 1, the cells were trypsinized at approximately 90% confluence and resuspended at 4×10⁵ cells/mL. […] On day 2, the antibody samples to be tested were prepared in a separate polypropylene round bottom plate with a twofold desired concentration with a final volume of 120 μl. All of the assay samples were diluted in cell culture medium. […] After fixation, each well was washed 3 times with 200 μL PBS/0.05% Tween. The secondary incubation step for detection of bound anti-CD81 antibodies was performed for 2 h at room temperature on a reciprocal shaker. […] Each well was washed three times with 200 PBS/0.05% Tween to remove unbound antibodies. […] The absorbance was read using the ELISA Tecan reader at 450 nm with 620 nm reference wavelength.

[2] = target: T2, phosphorylated human tau protein (human, UniProt P10636-8 1-441, limits assumed, S422 phosphorylation); assay: SPR (BIAcore), captured antibody
T2 construct: also called pTau

[3] = target: T2, phosphorylated human tau protein; assay: SPR (BIAcore); value set to 0 where kd not determinable

T2 sequence (P10636 other isoform, or with tags, fused parts or gaps limits assumed): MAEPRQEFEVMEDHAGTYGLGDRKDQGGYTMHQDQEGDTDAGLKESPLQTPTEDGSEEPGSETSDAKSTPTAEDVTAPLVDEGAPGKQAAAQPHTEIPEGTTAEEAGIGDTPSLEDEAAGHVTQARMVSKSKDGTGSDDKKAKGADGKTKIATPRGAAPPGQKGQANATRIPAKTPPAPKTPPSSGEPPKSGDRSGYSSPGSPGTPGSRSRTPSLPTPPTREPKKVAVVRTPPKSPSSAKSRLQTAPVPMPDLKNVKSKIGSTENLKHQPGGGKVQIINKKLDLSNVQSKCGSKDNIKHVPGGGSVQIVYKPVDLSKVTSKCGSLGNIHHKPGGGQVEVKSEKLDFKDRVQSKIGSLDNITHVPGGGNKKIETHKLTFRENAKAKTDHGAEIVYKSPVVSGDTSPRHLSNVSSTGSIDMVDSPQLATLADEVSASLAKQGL

B1: CD81K04 HC CD81K04 / LC CD81K04 (antibody, V domains shown)
VH: QVQLQQSGPELVKPGASVKISCKASGYTFSSSWMNWVKQRPGKGLEWIGRIYSGDGDAIYNGKFKGKATLTADKSSSTAYMQLSSLTSEDSAVYFCAREGKTGDLLLRSWGQGSALTVSS
VL: DIVLTQSPASLSVSLGQRATISCRASKSVSTSIYSYMHWYQQKPGQPPKLLIKYASYLESGVPARFSGSGSGTDFTLNIHPVEEEDAATYYCEHSREFPFTFGTGTKLEIK
notes: chimeric form of murine CD81K04
ELISA absorbance [1]: 1.14

B2: CD81K04 HC K04_JA-13-hVH_1_3 / LC CD81K04 (antibody, V domains shown)
VH: QVQLVQSGAEVKKPGASVKVSCKASGYTFSSSWMNWVRQAPGQRLEWMGRIYSGDGDAIYNGKFKGRVTITRDTSASTAYMELSSLRSEDTAVYYCAREGKTGDLLLRSWGQGTLVTVSS
VL: B1 VL
ELISA absorbance [1]: 0.975

B3: Rb86 variant: HC Rb86 / LC 012--IMGT_hVK_1_17 (antibody, V domains shown)
VH: QSVEESGGRLVTPGTPLTLTCTVSGFSLSSNAINWVRQAPGKGLEWIGYIAVSGNTYYASWAKGRFTISKASTTVDLKMTSPTAEDTGTYFCGKSNIWGPGTLVTVSL
VL: DIQMTQSPSSLSASVGDRVTITCRASQGVRTNKLAWFQQKPGQPPKRLIYSASTLQSGVPSRFSGSGSGTEFTLTISSLQPEDFATYYCLGYFDCSIADCVAFGGGTKVEIK
half-life (t1/2) [2]: 15.9 min

B4: Rb86 variant: HC Rb86 / LC 017--IMGT_hVK_1_17 (antibody, V domains shown)
VH: B3 VH
VL: B3 VL with A25S, G28S, Q56D, S57F
half-life (t1/2) [2]: 23.2 min

B5: Rb86 variant: HC 002--IMGT_hVH_3_23 / LC Rb86 (antibody, V domains shown)
VH: QSVLESGGGLVQPGGSLRLSCAASGFSLSSNAINWVRQAPGKGLEWVGYIAVSGNTYYASWAKGRFTISRDNSKNTLYLQMNSLRAEDTAVYYCGKSNIWGPGTLVTVSS
VL: AQVLTQTTSPVSAAVGSTVTISCQSSQSVRTNKLAWFQQKPGQPPKRLIYSASTLDFGVPSRFSASGSGTQFTLTISDVQCDDAATYYCLGYFDCSIADCVAFGGGTEVVVK
half-life (t1/2) [2]: 8.41 min

B6: Rb86 variant: HC 001_IGHV3_23_04 / LC 010--IMGT_hVK_1_17 (antibody, V domains shown)
VH: B5 VH with S2Q, V3L, L4V, P102Q
VL: B3 VL with A35G, F37Y, Q43K, P44A
half-life (t1/2) [3]: 0 h

B7: Rb86 variant: HC 001_IGHV3_23_04 / LC 012--IMGT_hVK_1_17 (antibody, V domains shown)
VH: B5 VH with S2Q, V3L, L4V, P102Q
VL: B3 VL
half-life (t1/2) [2]: 4.67 min

B8: Rb86 variant: HC 001_IGHV3_23_04 / LC 013--IMGT_hVK_1_17 (antibody, V domains shown)
VH: B5 VH with S2Q, V3L, L4V, P102Q
VL: B3 VL with P8T
half-life (t1/2) [2]: 5.65 min

B9: Rb86 variant: HC 001_IGHV3_23_04 / LC 017--IMGT_hVK_1_17 (antibody, V domains shown)
VH: B5 VH with S2Q, V3L, L4V, P102Q
VL: B3 VL with A25S, G28S, Q56D, S57F
half-life (t1/2) [2]: 5.26 min

B10: Rb86 variant: HC 001_IGHV3_23_04 / LC 015--IMGT_hVK_1_17 (antibody, V domains shown)
VH: B5 VH with S2Q, V3L, L4V, P102Q
VL: B3 VL with C95S, C100S
half-life (t1/2) [2]: 3.02 min

B11: Rb86 variant: HC 001_IGHV3_23_04 / LC 014--IMGT_hVK_1_17 (antibody, V domains shown)
VH: B5 VH with S2Q, V3L, L4V, P102Q
VL: B3 VL with P81S
half-life (t1/2) [2]: 5.08 min
